Test results as given in the supplement of paper PMC9112550, “Optimization of the antimicrobial peptide Bac7 by deep mutational scanning” (BMC Biology, 2022).

Tested on: Escherichia coli TOP10
Experiment: shrunken log2 fold change of peptide-encoding DNA abundance (4.5 h post-induction vs induction); higher = less antimicrobial activity (less host growth inhibition)
Conditions: time post-induction: 4.5 h; library: site-saturation at positions 5, 18, 19, 20
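Note: peptides expressed intracellularly from a pBAD plasmid library in pooled LB shake-flask culture, induced with 0.3% L-arabinose, DNA abundance read by NGS, three biological replicates, DESeq2 with apeglm shrinkage.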

Sequence	shrunken log2 fold change
RRIRGRPPRLPRPRPRPDVLPRP	0.246
RRIRQRPPRLPRPRPRPPFCPRP	-0.284
RRIRKRPPRLPRPRPRPIDAPRP	0.318
RRIRFRPPRLPRPRPRPGHKPRP	0.0531
RRIRTRPPRLPRPRPRPQDHPRP	-0.805
RRIRYRPPRLPRPRPRPTVIPRP	-0.146
RRIRFRPPRLPRPRPRPLQNPRP	0.0294
RRIRNRPPRLPRPRPRPPRQPRP	0.449
RRIRERPPRLPRPRPRPGRCPRP	0.0675
RRIRNRPPRLPRPRPRPRNPPRP	0.0944
RRIRSRPPRLPRPRPRPYDCPRP	-0.0167
RRIRHRPPRLPRPRPRPVKCPRP	-0.00443
RRIRVRPPRLPRPRPRPFPYPRP	-0.277
RRIRSRPPRLPRPRPRPCCKPRP	0.0569
RRIRPRPPRLPRPRPRPHRYPRP	-0.136
RRIRGRPPRLPRPRPRPDFKPRP	0.386
RRIRGRPPRLPRPRPRPVQSPRP	0.689
RRIRSRPPRLPRPRPRPFDCPRP	-0.277
RRIRDRPPRLPRPRPRPYSVPRP	-0.0716
RRIRWRPPRLPRPRPRPVQNPRP	0.316
RRIRQRPPRLPRPRPRPNWIPRP	-0.0614
RRIRYRPPRLPRPRPRPHDRPRP	0.0039
RRIRTRPPRLPRPRPRPMVRPRP	-0.0017
RRIRTRPPRLPRPRPRPKFSPRP	-0.189
RRIRVRPPRLPRPRPRPGGIPRP	0.143

Sequence	shrunken log2 fold change
RRIRRRPPRLPRPRPRPRVWPRP	0.686
RRIRKRPPRLPRPRPRPFIMPRP	-0.191
RRIRVRPPRLPRPRPRPAGGPRP	1.15
RRIRWRPPRLPRPRPRPSVNPRP	-0.0581
RRIRGRPPRLPRPRPRPFKCPRP	-0.307
RRIRNRPPRLPRPRPRPRSHPRP	-0.127
RRIRCRPPRLPRPRPRPWDKPRP	-0.0809
RRIRNRPPRLPRPRPRPIISPRP	0.0108
RRIRDRPPRLPRPRPRPTMQPRP	0.625
RRIRRRPPRLPRPRPRPNRRPRP	0.231
RRIRIRPPRLPRPRPRPTLYPRP	-0.348
RRIRPRPPRLPRPRPRPHKPPRP	-0.0376
RRIRSRPPRLPRPRPRPLAWPRP	0.402
RRIRWRPPRLPRPRPRPAYIPRP	-0.0757
RRIRVRPPRLPRPRPRPLPIPRP	-0.398
RRIRHRPPRLPRPRPRPRACPRP	0.0227
RRIRPRPPRLPRPRPRPDTAPRP	-0.0311
RRIRIRPPRLPRPRPRPCTHPRP	-0.791
RRIRWRPPRLPRPRPRPRYDPRP	-0.248
RRIRHRPPRLPRPRPRPPEIPRP	0.0979
RRIRERPPRLPRPRPRPRKYPRP	-0.201
RRIRHRPPRLPRPRPRPKTSPRP	-0.0692
RRIRKRPPRLPRPRPRPKWIPRP	-0.111
RRIRERPPRLPRPRPRPLGIPRP	-0.0554
RRIRTRPPRLPRPRPRPDSEPRP	-0.182

Sequence	shrunken log2 fold change
RRIRGRPPRLPRPRPRPMPAPRP	1.29
RRIRYRPPRLPRPRPRPNKGPRP	-0.618
RRIRTRPPRLPRPRPRPEPCPRP	0.0427
RRIRCRPPRLPRPRPRPSYGPRP	-0.627
RRIRTRPPRLPRPRPRPMHKPRP	-0.271
RRIRLRPPRLPRPRPRPNTIPRP	-0.796
RRIRSRPPRLPRPRPRPNVTPRP	-0.0212
RRIRNRPPRLPRPRPRPNLNPRP	-0.557
RRIRVRPPRLPRPRPRPSARPRP	0.275
RRIRHRPPRLPRPRPRPPFKPRP	0.332
RRIRTRPPRLPRPRPRPMCEPRP	0.0422
RRIRQRPPRLPRPRPRPCEVPRP	-0.00192
RRIRWRPPRLPRPRPRPWDSPRP	-0.287
RRIRNRPPRLPRPRPRPMQKPRP	0.0161
RRIRYRPPRLPRPRPRPRFPPRP	-0.448
RRIRIRPPRLPRPRPRPKDPPRP	-0.111
RRIRMRPPRLPRPRPRPVNYPRP	-0.0244
RRIRPRPPRLPRPRPRPKMQPRP	0.132
RRIRARPPRLPRPRPRPKMYPRP	0.152
RRIRARPPRLPRPRPRPRSTPRP	0.295
RRIRDRPPRLPRPRPRPHEKPRP	-0.0396
RRIRGRPPRLPRPRPRPMKVPRP	-0.0224
RRIRARPPRLPRPRPRPYFRPRP	-0.435
RRIRTRPPRLPRPRPRPRNNPRP	-0.803
RRIRSRPPRLPRPRPRPGAHPRP	0.0286
